Results reported in US20040228866A1, “Suppressor genes” (Ludwig Institute for Cancer Research, priority 2000, published 2004).

How the values were obtained:
p63γ = target: T1, p63γ (Homo sapiens, UniProt Q9H3D4); experiment: Co-immunoprecipitation with p63γ (in vitro translated; transfected H1299 and Saos-2 cells); assay type: binding; details: for interaction with p63γ in vitro: in vitro translated proteins, FIGS. 12B and 12C; for interaction with p63γ in vivo: transfected cells, FIGS. 13A and 13C
T1 construct: expressed in transfected cells; host or cells: Saos-2
T1 sequence (Q9H3D4 1-487 isoform Q9H3D4-5): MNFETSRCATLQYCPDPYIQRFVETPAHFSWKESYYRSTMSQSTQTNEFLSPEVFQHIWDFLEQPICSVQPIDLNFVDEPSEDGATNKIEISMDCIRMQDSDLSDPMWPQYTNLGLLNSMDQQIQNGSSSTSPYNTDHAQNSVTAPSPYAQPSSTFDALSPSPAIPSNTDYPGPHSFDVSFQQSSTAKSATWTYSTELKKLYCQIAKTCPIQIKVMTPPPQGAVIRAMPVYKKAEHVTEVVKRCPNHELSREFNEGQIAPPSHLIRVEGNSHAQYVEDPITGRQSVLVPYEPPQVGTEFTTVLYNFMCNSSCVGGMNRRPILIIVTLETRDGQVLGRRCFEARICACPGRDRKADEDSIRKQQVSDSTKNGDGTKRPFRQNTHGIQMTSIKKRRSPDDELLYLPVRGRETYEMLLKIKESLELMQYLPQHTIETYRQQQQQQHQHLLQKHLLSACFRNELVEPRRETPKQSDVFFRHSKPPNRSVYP
Description: (§1) V5-tagged ASPP1 and ASPP2 proteins were in vitro translated with cold methionine using the TNT T7 Quick coupled Transcription/Translation System (Promega). Cell lysates were incubated at 30° C. for 1 hour and then immunoprecipitated with anti-V5 antibody on protein G agarose beads.
(§2) The agarose beads were added to the binding reactions and incubated on a rotating wheel at 4° C. for 16 hours. The beads were then washed with PBS. The bound proteins were released in SDS gel sample buffer and analysed by 10% SDS-polyacrylamide gel electrophoresis (PAGE). The gels were wet transferred on to Protran nitrocellulose membrane and the resulting blots were first incubated with primary antibody and subsequently with the appropriate secondary HRP conjugated antibody (Dako). The blot was exposed to hyperfilm following the use of ECL substrate solution (Amersham Life Science).
(§3) Cells were transfected with 1 μg of p63γ or p73α in the presence or absence of 10 μg of ASPP1 or ASPP2. Cell lysate (1 mg) was immunoprecipitated with an antiASPP1 or ASPP2 antibody (see Example 2 and 7). The immunoprecipitates were separated on an SDS gel and the presence of p63 or p73 on the immunoblots detected by mouse monoclonal antibodies 4A4 (Santa Cruz) and ER-15 (Neomarker) to p63 or p73, respectively. The presence of ASPP1 or ASPP2 was detected with antibodies YX.7 and DX5410, respectively.
(§4) In some methods, larger amounts of cell lysate (2 mg) were immunoprecipitated with rabbit antibodies ASPP1.88 or BP77 to ASPP1 and ASPP2, respectively. The expression of ASPP1, ASPP2, p63γ and p73α was detected as described above.

p73α = target: T2, p73α (Homo sapiens, UniProt O15350); experiment: Co-immunoprecipitation with p73α (in vitro translated; transfected H1299 and Saos-2 cells); assay type: binding; details: for interaction with p73α in vitro: in vitro translated proteins, FIGS. 12B and 12C; for interaction with p73α in vivo: transfected cells, FIGS. 13B and 13D
T2 construct: expressed in transfected cells; host or cells: H1299 and Saos-2; part of the results from in vitro translation
T2 sequence (O15350 1-636): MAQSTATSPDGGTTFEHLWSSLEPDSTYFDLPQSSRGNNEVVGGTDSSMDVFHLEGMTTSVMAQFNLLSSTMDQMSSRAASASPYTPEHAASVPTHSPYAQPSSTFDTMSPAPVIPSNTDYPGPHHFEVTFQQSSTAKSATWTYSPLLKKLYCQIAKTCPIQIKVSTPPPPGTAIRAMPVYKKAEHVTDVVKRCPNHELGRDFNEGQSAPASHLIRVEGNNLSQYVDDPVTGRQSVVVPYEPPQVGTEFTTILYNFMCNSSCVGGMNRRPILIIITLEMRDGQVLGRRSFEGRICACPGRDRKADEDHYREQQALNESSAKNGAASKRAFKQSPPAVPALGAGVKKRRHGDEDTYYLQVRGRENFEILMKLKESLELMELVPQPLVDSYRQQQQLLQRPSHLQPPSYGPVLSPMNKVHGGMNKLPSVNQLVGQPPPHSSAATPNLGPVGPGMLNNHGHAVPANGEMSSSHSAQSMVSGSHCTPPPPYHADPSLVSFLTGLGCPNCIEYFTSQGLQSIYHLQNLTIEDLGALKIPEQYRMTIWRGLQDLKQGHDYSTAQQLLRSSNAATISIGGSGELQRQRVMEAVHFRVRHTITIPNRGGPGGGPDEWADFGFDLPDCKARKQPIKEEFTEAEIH
Description: as §1, §2, §3, §4

p53 [1] = target: T3, p53 (Homo sapiens, UniProt P04637); experiment: Transient luciferase reporter assay of p53 transactivation function in Saos-2 cells; assay type: cell-based; details: for stimulation of the promoter activity of mdm2 and cyclin G: co-expression with p53; for promoter activity of PIG-3: transient transfection reporter assay
T3 construct: expressed in transfected cells
Description: (§5) The amount of luciferase expression was determined as previously described in Samuels-Lev et al. (Mol. Cell 8:781-94, 2001, herein incorporated by reference).
(§6) The amount of transactivation function was determined as described in Example 4.
(§7) To determine the amount of protein expression, Saos-2 cells (5×10^5) were plated 24 hours prior to transfection in 6 cm dishes. […] To determine the amount of gene activation, after transfection, the cells were lysed in Reporter Lysis Buffer 16-24 hours post-wash and assayed using the Luciferase Assay kit (Promega, Wis.). The fold activation of a particular reporter was determined by the activity of the transfected plasmid above the activity of vector alone.
(§8) The expression level of transfected proteins was detected using 40 μg of the respective lysates using the antibodies V5, DX.5410, DO1, 4A4 and p73. […] Results were derived from at least three independent experiments.

p53 [2] = target: T4, p53 (Homo sapiens, UniProt P04637, R181C); experiment: as above; assay type: cell-based; details: Bax-luc, FIG. 6B
T4 construct: expressed in transfected cells
Description: as §5, §6, §7, §8

E2F1 = target: T5, E2F1 (Homo sapiens, UniProt Q01094); experiment: Transient reporter assay of E2F1 transactivation function; assay type: cell-based; details: co-expression with E2F1, FIGS. 2C and 2D
T5 construct: expressed in transfected cells
T5 sequence (Q01094 whole entry, species assumed): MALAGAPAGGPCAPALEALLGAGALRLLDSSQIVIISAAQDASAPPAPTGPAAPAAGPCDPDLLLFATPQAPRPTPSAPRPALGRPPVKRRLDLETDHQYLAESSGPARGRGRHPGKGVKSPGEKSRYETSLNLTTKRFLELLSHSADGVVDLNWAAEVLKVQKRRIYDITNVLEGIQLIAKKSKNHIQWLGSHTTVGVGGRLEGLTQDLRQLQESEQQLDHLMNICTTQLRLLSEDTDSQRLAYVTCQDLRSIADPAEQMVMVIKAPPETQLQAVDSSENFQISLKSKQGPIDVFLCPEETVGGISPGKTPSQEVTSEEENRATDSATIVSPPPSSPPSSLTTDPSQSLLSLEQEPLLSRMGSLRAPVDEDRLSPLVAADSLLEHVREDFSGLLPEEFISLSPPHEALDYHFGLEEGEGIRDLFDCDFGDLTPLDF

B1: ASPP2: full length 1128 amino acid protein, SEQ ID NO: 4 (protein, listed as Homo sapiens)
chain: MMPMFLTVYLSNNEQHFTEVPVTPETICRDVVDLCKEPGESDCHLAEVWCGSERPVADNERMFDVLQRFGSQRNEVRFFLRHERPPGRDIVSGPRSQDPSLKRNGVKVPGEYRRKENGVNSPRMDLTLAELQEMASRQQQQIEAQQQLLATKEQRLKFLKQQDQRQQQQVAEQEKLKRLKEIAENQEAKLKKVRALKGHVEQKRLSNGKLVEEIEQMNNLFQQKQRELVLAVSKVEELTRQLEMLKNGRIDSHHDNQSAVAELDRLYKELQLRNKLNQEQNAKLQQQRECLNKRNSEVAVMDKRVNELRDRLWKKKAALQQKENLPVSSDGNLPQQAASAPSRVAAVGPYIQSSTMPRMPSRPELLVKPALPDGSLVIQASEGPMKIQTLPNMRSGAASQTKGSKIHPVGPDWSPSNADLFPSQGSASVPQSTGNALDQVDDGEVPLREKEKKVRPFSMFDAVDQSNAPPSFGTLRKNQSSEDILRDAQVANKNVAKVPPPVPTKPKQINLPYFGQTNQPPSDIKPDGSSQQLSTVVPSMGTKPKPAGQQPRVLLSPSIPSVGQDQTLSPGSKQESPPAAAVRPFTPQPSKDTLLPPFRKPQTVAASSIYSMYTQQQAPGKNFQQAVQSALTKTHTRGPHFSSVYGKPVIAAAQNQQQHPENIYSNSQGKPGSPEPETEPVSSVQENHENERIPRPLSPTKLLPFLSNPYRNQSDADLEALRKKLSNAPRPLKKRSSITEPEGPNGPNIQKLLYQRTTIAAMETISVPSYPSKSASVTASSESPVEIQNPYLHVEPEKEVVSLVPESLSPEDVGNASTENSDMPAPSPGLDYEPEGVPDNSPNLQNNPEEPNPEAPHVLDVYLEEYPPYPPPPYPSGEPEGPGEDSVSMRPPEITGQVSLPPGKRTNLRKTGSERIAHGMRVKFNPLALLLDSSLEGEFDLVQRIIYEVDDPSLPNDEGITALHNAVCAGHTEIVKFLVQFGVNVNAADSDGWTPLHCAASCNNVQVCKFLVESGAAVFAMTYSDMQTAADKCEEMEEGYTQCSQFLYGVQEKMGIMNKGVIYALWDYEPQNDDELPMKEGDCMTIIHREDEDEIEWWWARLNDKEGYVPRNLLGLYPRIKPRQRSLA
With B1 the “interaction with p63γ in vitro” value (p63γ) was “co-immunoprecipitated”, the “interaction with p63γ in vivo” value (p63γ) was “co-immunoprecipitated transfected p63γ and p73α” and the “interaction with p73α in vitro” value (p73α) was “co-immunoprecipitated”. The “interaction with p73α in vivo” value (p73α) was “co-immunoprecipitated transfected p63γ and p73α”, the “transactivation function of p53 on the mdm2 promoter” value (p53 [1]; FIG. 8C, Ikb even in the presence of ASPP2) was “very little effect” and the “stimulation of the promoter activity of mdm2 and cyclin G” value (p53 [1]) was “very modest stimulation”. The “stimulation of the transactivation function of p53 on the Bax promoter” value (p53 [1]; co-expression with p53, FIG. 8B) was “about 8 fold”, the “promoter activity of PIG-3” value (p53 [1]) was “specifically stimulated” and the “stimulation of the transactivation function of p53” value (p53 [1]; versions of ASPP2 co-expressed with p53, FIG. 3) was “about 7 fold”. The “transactivation function of mutant p53 181C on the Bax gene promoter” value (p53 [2]) was “unable to stimulate” and the “transactivation function of E2F1 on cyclin A, b-myb and synthetic promoter 3×wt” value (E2F1) was “failed to stimulate”.

B2: ASPP1: Apoptosis Stimulating Protein 1, protein of SEQ ID NO: 2, expressed from a transfected plasmid (protein, listed as Homo sapiens)
chain: MMPMILTVFLSNNEQILTEVPITPETTCRDVVEFCKEPGEGSCHLAEVWRGNERPIPFDHMMYEHLQIWGPRREEVKFFLRHEDSPTENSEQGGRQTQEQRTQRNVINVPGDKRTEYGVGNPRVELTLSELQDMAARQQQQIENQQQMLVAKEQRLHFLKQQERRQQQSISENEKLQKLKERVEAQENKLKKIRAMRGQVDYSKIMNGNLSAEIERFSAMFQEKKQEVQTAILRVDQLSQQLEDLKKGKLNGFQSYNGKLTGPAAVELKRLYQELQIRNQLNQEQNSKLQQQKELLNKRNMEVAMMDKRISELRERLYGKKIQLNRVNGTSSPQSPLSTSGRVAAVGPYIQVPSAGSFPVLGDPIKPQSLSIASNAAHGRSKSANDGNWPTLKQNSSSSVKPVQVAGADWKDPSVEGSVKQGTVSSQPVPFSALGPTEKPGIEIGKVPPPIPGVGKQLPPSYGTYPSPTPLGPGSTSSLERRKEGSLPRPSAGLPSRQRPTLLPATGSTPQPGSSQQIQQRISVPPSPTYPPAGPPAFPAGDSKPELPLTVAIRPFLADKGSRPQSPRKGPQTVNSSSIYSMYLQQATPPKNYQPAAHSALNKSVKAVYGKPVLPSGSTSPSPLPFLHGSLSTGTPQPQPPSESTEKEPEQDGPAAPADGSTVESLPRPLSPTKLTPIVHSPLRYQSDADLEALRRKLANAPRPLKKRSSITEPEGPGGPNIQKLLYQRFNTLAGGMEGTPFYQPSPSQDFMGTLADVDNGNTNANGNLEELPPAQPTAPLPAEPAPSSDANDNELPSPEPEELICPQTTHQTAEPAEDNNNNVATVPTTEQIPSPVAEAPSPGEEQVPPAPLPPASHPPATSTNKRTNLKKPNSERTGHGLRVRFNPLALLLDASLEGEFDLVQRIIYEVEDPSKPNDEGITPLHNAVCAGHHHIVKFLLDFGVNVNAADSDGWTPLHCAASCNSVHLCKQLVESGAAIFASTISDIETAADKCEEMEEGYIQCSQFLYGVQEKLGVMNKGVAYALWDYEAQNSDELSFHEGDALTILRRKDESETEWWWARLGDREGYVPKNLLGLYPRIKPRQRTLA
With B2 the “interaction with p63γ in vitro” value (p63γ) was “co-immunoprecipitated”, the “interaction with p63γ in vivo” value (p63γ) was “co-immunoprecipitated transfected p63γ and p73α” and the “interaction with p73α in vitro” value (p73α) was “co-immunoprecipitated”. The “interaction with p73α in vivo” value (p73α) was “co-immunoprecipitated transfected p63γ and p73α”, the “stimulation of the transactivation function of p53 on the Bax promoter” value (p53 [1]; Example 16, FIGS. 14A and 14B) was “around 6 fold” and the “stimulation of the promoter activity of mdm2 and cyclin G” value (p53 [1]) was “very modest stimulation”. The “promoter activity of PIG-3” value (p53 [1]) was “specifically stimulated”, the “transactivation function of mutant p53 181C on the Bax gene promoter” value (p53 [2]) was “unable to stimulate” and the “transactivation function of E2F1 on cyclin A, b-myb and synthetic promoter 3×wt” value (E2F1) was “failed to stimulate”.
